“Also recorded” adds a separate entry of the source.
Target: T1, heparanase (latent 65 kDa or GS3 constitutively active) (Homo sapiens, UniProt Q9Y251)
T1 construct: host or cells: added exogenously to HEK 293 cells
T1 sequence (Q9Y251 36-543): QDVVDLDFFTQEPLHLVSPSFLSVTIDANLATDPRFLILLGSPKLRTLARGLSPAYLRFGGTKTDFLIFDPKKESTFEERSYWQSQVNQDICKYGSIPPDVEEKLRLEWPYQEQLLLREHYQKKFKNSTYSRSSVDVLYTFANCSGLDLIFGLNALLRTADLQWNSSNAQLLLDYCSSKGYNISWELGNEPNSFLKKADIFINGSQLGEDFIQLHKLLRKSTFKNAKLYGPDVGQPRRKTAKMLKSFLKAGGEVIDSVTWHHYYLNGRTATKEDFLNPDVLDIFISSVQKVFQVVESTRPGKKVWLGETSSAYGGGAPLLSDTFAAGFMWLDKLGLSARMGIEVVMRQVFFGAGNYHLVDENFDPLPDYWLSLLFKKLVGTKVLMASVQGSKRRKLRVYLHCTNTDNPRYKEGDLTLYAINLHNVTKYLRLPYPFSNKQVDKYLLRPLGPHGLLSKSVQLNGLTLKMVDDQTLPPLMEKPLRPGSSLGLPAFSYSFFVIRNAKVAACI
Assay: Cellular uptake and processing of heparanase in HEK 293 cells (immunoblot)
Type: cell-based
Settings: mAb 10 μg/ml
Description: Development of heparanase-neutralizing monoclonal antibodies: In order to target heparanase activity even more specifically, a panel of monoclonal antibodies (mAb) directed against the KKDC peptide (Lys158-Asn171) which comprises the substrate (HS)-binding domain of heparanase (Levy-Adam F, et al. 2005, J Biol Chem 280(21):20457-20466) were developed. In order to validate that the resulting antibodies target the heparin/HS binding domain, cellular uptake of latent 65 kDa heparanase in the absence or presence of the various newly generated mAbs was tested. This system appeared most relevant because previous studies have shown that heparanase uptake is HS-dependent (Gingis-Velitski S, et al. 2004. J Biol Chem 279(42):44084-44092). […] Moreover, liver metastasis of ESb cells was inhibited 4-5 fold by mAb 9E8 (FIG. 3C). The availability of highly specific heparanase-neutralizing mAbs led to the conclusion that heparanase enzymatic activity is required for cell invasion and tumor metastasis.
FIG. 3A. HEK 293 cells were incubated with latent 65 kDa (upper panel) or GS3 constitutively active heparanase (1 μg/ml; third panel) and the indicated mAbs (10 μg/ml). […] The mixture was then applied onto ^35S-labeled ECM-coated dishes and heparanase activity was determined as described above (lower panel). […] Quantification of the extent of CD45 staining is shown graphically in the lower panel. […]

B1: mAb 9E8: monoclonal IgM raised against KKDC peptide (Lys158-Asn171) of heparanase; VH SEQ ID NO: 7, VL SEQ ID NO: 8 (antibody)
VH: EVKLLESGGGLVQPGGSLKLSCAASGFDFSRYWMSWVRQAPGKGLEWIGEINPDSSTINYTPSLKDKFIISRDNAKNTLYLQMSKVRSEDTALYYCARRGYEGNYAMDYWGQGTSVTVSSESQSFPNVFPLVSCESPLSDKNLVAMGCLAR
VL: DIVMTQAAPSVPVTPGESVSISCRSSKSLLHSNGNTYLYWFLQRPGQSPQLLIYRMSNLASGVPDRFSGSGSGTAFTLRISRVEAEDVGVYYCMQHLEYPFTFGSGTKLEIKRADAAPTVSIFPPSSEQLTSGGASVVCFL
modifications: IgM constant regions
How did the “uptake and processing of latent 65 kDa heparanase” value turn out when B1 was run?
Its value is “markedly decreased; also recorded: almost complete inhibition”.
